{
  "source": "patent US20190085028A1",
  "target": "NMDA receptor on rat hippocampal neurons (E18 Sprague Dawley primary culture) (rat), P35439",
  "test": "cell-based or functional assay",
  "data": [
    {"binder": "GEDDYQDAQDLIRDKSN", "note": "[Peptide SEQ ID NO: 3 (…)]", "values": [
      {"measurement": "IC50 of inhibition of NMDA receptor-evoked current (dose-response curve, FIG. 3H)", "value": 156, "unit": "µM"},
      {"measurement": "inhibition of NMDA receptor-evoked current (whole-cell patch clamp), 10 µM peptide", "value": 14, "unit": "%"},
      {"measurement": "inhibition of NMDA receptor-evoked current (whole-cell patch clamp), 100 µM peptide", "value": 40, "unit": "%"},
      {"measurement": "inhibition of NMDA receptor-evoked current (whole-cell patch clamp), 500 µM peptide", "value": 66.5, "unit": "%"}
    ]}
  ]
}
